Assay results published in publication PMC2749821.

Experiments:
[1] = molecular target: T1, bone morphogenetic protein 7 (BMP7), human (human), P18075; assay: SPR; Biacore 2000; receptor ectodomains as analyte over biotinylated ligands on streptavidin-coated CM5 chips; HBS500, 25°C, 10 μl/min; apparent affinities, 1:1 interaction; details: remark: other sources report otherwise
T1 chain: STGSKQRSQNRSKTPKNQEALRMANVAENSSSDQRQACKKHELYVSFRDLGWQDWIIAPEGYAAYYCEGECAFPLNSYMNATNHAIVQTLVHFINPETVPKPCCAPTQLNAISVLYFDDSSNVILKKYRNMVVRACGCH

[2] = molecular target: preformed complex of BMP7 with immobilized BMPR-IB ectodomain (human | mouse) (UniProt P18075); assay: SPR; ternary complexes by coinjection: 100 nM ligand perfused 2 min over the immobilized type I receptor ectodomain, then 100 nM ligand plus 0 to 64 μM soluble type II receptor ectodomain; HBS500, 25°C; equilibrium dose response
[3] = molecular target: preformed complex of GDF5 with an immobilized type I receptor ectodomain (BMPR-IA or BMPR-IB) (UniProt P43026); assay: as above
[4] = molecular target: preformed complex of BMP2 with immobilized BMPR-IA ectodomain (human) (UniProt P12643); assay: as above
activin A, human (human) = activin A, human (human) (UniProt P08476); assay: SPR; Biacore 2000; receptor ectodomains as analyte over biotinylated ligands on streptavidin-coated CM5 chips; HBS500, 25°C, 10 μl/min; apparent affinities, 1:1 interaction
[5] = molecular target: T2, activin receptor type I (ActR-I) ectodomain, human (human), Q04771; assay: SPR; Biacore 2000; ligands as analyte over biotinylated receptor ectodomains (about 200 RU) on streptavidin-coated CM5 chips; HBS500 (10 mM HEPES pH 7.4, 500 mM NaCl, 3.4 mM EDTA, 0.005% P20), 25°C, 10 μl/min; apparent affinities, 1:2 interaction with avidity; details: remark: other sources report otherwise
T2 chain: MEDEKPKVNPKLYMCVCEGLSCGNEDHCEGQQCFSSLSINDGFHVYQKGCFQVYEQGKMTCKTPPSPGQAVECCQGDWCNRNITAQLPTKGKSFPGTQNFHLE

B1: activin receptor type I (ActR-I) ectodomain, human, Q04771 21-123 (receptor)
chain: T2 chain
modifications: here or on the partner: N-biotinylated (sulfo-NHS-LC-biotin) where immobilised; biotin (sulfo-NHS-LC-biotin) where immobilised
B1 gave a Kd [1] of 58 µM.

B2: BMP receptor II (BMPR-II) ectodomain, human (receptor)
chain: RLCAFKDPYQQDLGIGESRISHENGTILCSKGSTCYGLWEKSKGDINLVKQGCWSHIGDPQECHYEECVVTTTPPSIQNGTYRFCCCSTDLCNVNFTENFPPPDTTPLSPPHSFNRDET
modifications: N-biotinylated (sulfo-NHS-LC-biotin) where immobilised
For B2, the Kd [2] was 16 µM, the Kd [3] was 32 µM and the Kd [4] was 22 µM. It also gave a Kd (activin A, human (human)) of 0.89 µM, a koff (activin A, human (human)) of 0.076 s⁻¹ and a kon (activin A, human (human)) of 100000 M⁻¹ s⁻¹.

B3: bone morphogenetic protein 7 (BMP7), human, P18075 293-431 (ligand)
chain: T1 chain
modifications: here or on the partner: biotin (sulfo-NHS-LC-biotin) where immobilised; N-biotinylated (sulfo-NHS-LC-biotin) where immobilised
In the case of B3, the KD (eq) [5] is reported as over 0.5 µM and the Kd [5] is reported as over 0.5 µM.
